Results from patent publication US20100260776A1.

Target: KDR (VEGF receptor, flk-1/KDR, VEGFR2) (human) (UniProt P35968)
Assay: in vitro receptor saturation; format not stated

concentration at 50% saturation of VEGF receptors: 0.2 µg/mL
concentration at 100% saturation of VEGF receptors: 3 µg/mL
Substance: IMC-1C11 (antibody)
